Measurements reported in article PMC2765437.

Experiments:
[1] = system: M-pol (MuLV RT polymerase domain) (MuLV); experiment: EMSA; details: 50 mM Tris-HCl pH 7.8, 60 mM KCl, 1 mM DTT, 0.01% NP40, 10% glycerol; 5 nM labeled template-primer, 10 uL; 6% native gel in Tris-borate pH 8.2 run at 4 C …
[2] = system: chimeric HIV-1 RT (HIV-1 RT polymerase domain + MuLV RT RNase H domain) (HIV-1 / MuLV chimera); experiment: EMSA; details: 50 mM Tris-HCl pH 7.8, 60 mM KCl, 1 mM DTT, 0.01% NP40, 10% glycerol; 5 nM labeled template-primer, 10 uL; 6% native gel in Tris-borate pH 8.2 run at 4 C …
[3] = system: chimeric MuLV RT (MHCI RT; MuLV RT polymerase domain + HIV-1 RT RNase H domain) (MuLV / HIV-1 chimera); experiment: EMSA; details: 50 mM Tris-HCl pH 7.8, 60 mM KCl, 1 mM DTT, 0.01% NP40, 10% glycerol; 5 nM labeled template-primer, 10 uL; 6% native gel in Tris-borate pH 8.2 run at 4 C …
[4] = system: wild-type HIV-1 RT (p66/66) (HIV-1); experiment: EMSA; details: 50 mM Tris-HCl pH 7.8, 60 mM KCl, 1 mM DTT, 0.01% NP40, 10% glycerol; 5 nM labeled template-primer, 10 uL; 6% native gel in Tris-borate pH 8.2 run at 4 C …
wild-type MuLV RT (MuLV) = experiment: EMSA; details: 50 mM Tris-HCl pH 7.8, 60 mM KCl, 1 mM DTT, 0.01% NP40, 10% glycerol; 5 nM labeled template-primer, 10 uL; 6% native gel in Tris-borate pH 8.2 run at 4 C …
[5] = target: wild-type p66/66 HIV-1 RT (human immunodeficiency virus type 1 reverse transcriptase) (human immunodeficiency virus type 1); experiment: glycerol gradient ultracentrifugation; 50 micrograms of each enzyme alone on 5 ml of 10%-30% linear glycerol gradient in 50 mM Tris HCl pH 8.0, 400 mM NaCl; 48,000 rpm, 20-24 h, SW 50.1 rotor; fractions from the bottom analysed by SDS-PAGE and Coomassie blue

Substance	Kd [1] [nM]	Kd [2] [nM]	Kd [3] [nM]	Kd [4] [nM]	Kd (wild-type MuLV RT (MuLV)) [nM]	stoichiometry N [5]
49-mer DNA template / 17-mer PBS DNA primer	1.2	1.5	3.3	3.2	2.7	
wild-type p66/66 HIV-1 RT (human immunodeficiency virus type 1 reverse transcriptase) (enzyme)						2
